Experimental data published in the NTF2 design screens of Basanta et al. (2020).

Test: protease stability score; higher = more stable; yeast display proteolysis, trypsin and chymotrypsin;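 note: relative to predicted unfolded state with 0 unfolded-like and 1 meaning tenfold more protease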

Sequence | protease stability score
SEEDHEHKVLTELSRKDWRTGNEHDLERLMDPNVRVEVDGREHHGWESAHELAKHFHRFFKNATLEIRHEEIQGEYLHIEMIIRVGDKVFDVHFIARKINGRWVLTEFSVH | 0.261
DHEEEKLKESLDRLEDINRTGDWHKIHDMLDPHVRVLVNGRKHHGRETATHIYREWRITDIQFKDIRLIGDKVHIHMESRVSVNGREHSVKSELILIKVDGQWYMHAEQFL | 1.05
DHNKEAADHILHLLRQSWRTGDEEIFQRLIDPNVKLQVGDKQFHGREEVTRWIQLYLLRFKGITIHDIEVKEVRTYDGRVEAREIHHNHVNGQDHSLDVHLYIVKVNGQWRLESMHVN | 1.77
SEEEENSRLLVELYFRWLVTGNEEVHNKYLDPNMRLEIRIGDKTIETHGREEILRAMREWRIRHVELKDRHVQGDKAHIEGTIIIEFDGRDIERHLNIIIVVINGRIHEIQLHVR | 2.79
SEEEQHFRELLHHILENMYTGDWRSLEKNADPHARLFYYQGDKYELYIGMHEWRRLLHHMHERFRNARFQIDEWHVQGDYFKIVESLDYGDKHIDIRVHIQYVNGRLKEMHIHIH | 1.24
EEEREIHQRHWEERLRAHRTGDEETLERQADPDVRIDFNGVELHGREVAVRFLLEMRLHDVDWRRIHTFDGRVDVDVIVDGEYNGRRYRSTFTLVIIKVNGQWLVHSMEFK | 0.244
NEEEHFMKEALEIWLHFFRTGDERDIQREFDPNARFEFENHTSHGRESVRELLTRLFHDLGINHVQFESIRVQGDKVEIHGHFFVDGRRYDFEMNSVKINGRWLNHTIRLR | 1.12
DEVKKETDEFSEKFRHALLTGDEEEIEKMADPHVKVDIDGREHHGREEWSEIYREWIHKRGVRIKHIRDHEVRIINGRAIIDQRVHGIVNGQETTLEMHFTTTKIDGRWILTEVFVK | 1.42
DEIEEVFREYTERIVDMWKTGDEELTNRNMDPNARMRIDVNGRDLELHGRERWIEHFRELGIKYEEIRDVRLRLVGDKANLEIDGEVDVNGQKHHTSLIIHVEKINGKWVISRIIFFIR | 1.2
DEKERKLLEIARLLIESFLTGDWKTFHEMLDPHVRFEVGDKEAHGWEEALRVWDHLKEEMRITDLDIHHYTVQGDKVHIDSRLHGEIDGKRVTFRTRIVVIVVNGRVKQVSYKIT | 1.23
TEQEHDMERLIEILIHSWRTGNEDELRRQIDPNARIDIGDKHFHGREFAIKHLSELRIKDFKLQHLDVQGDKVNVEGHLEGEINGRDDRYRYWIFVSKVNGQWFVERFHIV | 1.5
DEERDEARRVLEIFIKVFRTGDWHILHELADPHVRMDVNGREFIGREDYVKFFRYEMEIFGVERIDIKIHDVHVYNGRIEVHTRQNINGKERDTHLEIHKINGQWHLRDVRIH | 1.44
DEDTHNASEALEYLWRVIMTGDEEQVERMADPNVRVVFNGKHLHGREWFLRVLLHIRFDRVRIEHIHTQGEKVRTDSKSDIEFDGRRIEVDIEIYIHKINGRWIVKMFIFR | 2.89
DEEDEHALRMARLWWKALTTGDEELLHKLMDPDVRVEINGVEIHGRETYERFLHKLRRDLGVKHIEIQFHHIELYGEKIIIEGTIFIRQGDKEHKERSIIILVVVDGRIKSSKIILL | 2.19
TEDDENAKMIMHLLYNHMKTGDFDTLVDMVDPHARNIIDGRELVGWEHFYRWLHELGFNHNELRVRDIKHFDGKVDVDVELILNVGDKHLRIRTTFIVRKVNGRWFIESIRLK | 1.38
DEDTRLAEDELQLWVEHVETGDEDTLFELLDPNVRLHIGDKELHGREAWVQWLVEARVEHVHIRDIKVVDGKVLITGRIIFRVGDKRVDTDHHMIIEKINGRWVLHEIHFH | 2.07
DDEKEITHTLSEIWIHTVRTGDEDTATNLVDPHARLDYNGREFHGRELISELMIRHLTEWRITHIHIDHVRVINGRFEIHSHQDGHFDGVRRKVEVHIDIIIIDGVVKEIRIRVH | 1.17
DEDDEAVKRFIDEFVHSMRTGDEEKLYRLADPHVRSVIDGVEFVGMHWLTTELHHLRVQRLEFEFKDIHFQGDKAHVRGHLILTLHFNGREYVVRREVELIILKINGRWHLHEFIWR | 1.68
EEEDEWSREAVEFFKRMVETGDEDLQETLADPNARLIQGDKDEHGRHVLSEWMHRMGVDHIRFHHIDVQGDKVRLDFTMRVNGRQIHVKINNMKVNGQWRIKSVHLR | 0.537
SEEEELQRQLIEEFIRNRLTGDEDRLLELMDPNVRVRVGEKHAHGREEAIKLWHDHLHHWRIRHLTLRDYRVIDGKIHLHGEIHGEYNGKEHHTRTTIIIVHIDGRLRSIRIEID | 2.12
SEEEEIYKRIADLFLQIFSTGDEDRLHRLADPDVKWEYGDKKNVGMKDVIHYFEHIWMHVERSDNTDVDLQGNKARVDMRSDIRIEINGRELRIKVSVLIIIVKFNGRWTVHSLRIE | 1.27
SEEEEYARHFMTLVMSNLHTGNFEESRQNADPRTRVVIGDKRLHGWDEFAREYHEELRDRGVEIHFRVHHIEEFDGRLLTDFSIEIRYGDKVDHIRIRLYVTKINGRWFIKELEFR | 1.1
DEHEETIKRLAEIMEKWWFTGDEDALRLLLDPHVRIHLHQGDFNLDLIGMEHLRRLIHELIRKLGIDHSILKDRDIQGDKVTIHMELRIGDKTVTSHITMVMINGRLESFKIHFK | 1.32
SELNEKLKHLIELHWRVLETGDEHMMTRLLDPHARLEYGDKELHGREEVTHWHYEILEKVKNLQIHLSDYRIVNGQIHLHVVENVNGVTTRRFINIEKIDGRWHDREIRIE | 0.757
SEHDELLNRLSELLTHLILTGDWKTFSELADPNVLAITDINGRTRHHHGREHFLNLLEELLREFGIDHLWITHIDAFNGVSHTHVNIEVNGRTHELRLHIVIIDGKVHEVHFSFK | 0.34

Sequence | protease stability score
SENEKILHDLSKELFDIYHTGNEERWSEMADPHVKIDVNGQEYHGREEVEEELEHWRRRFKNARYEIHKIHVFDGRLLIEGHINIDGKKRQIHFRIHVVNGKIKEMRIEIR | 1.82
SEDERDSEEWAKILIKLLETGDEDELRRLMDPHVRTEVIVNGRTITHHGREDLTEFLRKLGADVIDIERVRVIDGVVHLDSRSKQGEKHVTLHFEALKINGRWITERFHVKFH | 1.3
SHNEEQSEREAKLEIEAYLTGDFDTLHRLADPNVRNNIEYGDKEIRLHGREEWVHQFYKLVEEYKGVKIHLQHLEYQGDKVILRIEIRVNGRERVLEIQIHVINGRSKEVNVETHVH | 1.18
DETEKHVKHLTELWMHAWLTGDEDLLEHLLDPHTRVIIFYGDKNYHFHGRESIHIRFYELGAKHVRDFRIRDSKIQGNKLLLNGEENGLVNGRQTETEVRIELVWIDGRVHSIVVRIH | 1.3
TEEEEEFHEILEHFLTQLHTGDWEEIIKNLDPNVLFHFNGVLFHGREEVSRFLVEWFDKIKGMRIHIHELRIVGDKATIDTRLDVGEKTHRVIIHIRKINGRWLITEIRIE | 2.02
SEEERDARIAIEIMLRLLHTGDEESMHQLADPDVRSDVGDKELHGWKLFVDVITEMGIDHVELEHLHTQGDKVHIHVRSFFNGREYLVNLHVRKVDGKWYVEEMKISHH | 2.45
DEVDDEVDKMLEFVLDSWETGDEHINRDLMDPNVLVEAENRTLIGREWAEEFLHSIKKRFPNMRVQLHDMRVVGDKVELDTELRYGEYHNRTHIIALKVNGKWLVEKVHFH | 1.13
SEDEHRAEQLLRLWRETYTTGDERVMKELFDPNVRFDFNGREFIGREEAIRAFHEEVRHLGVDHVEIKEVEYRVINGQVHVHIESHFEVDGRRHRVHIESIVRKVNGKWRVEEVRIEIR | 0.969
NEDEKILEEAARLLFKALHTGDETTMLRLLDPNVRLHINGRDLIGREEMDRWWQELGLERISVHLDHLETHYIGNKIEIYIRGTVEFNGVRREIDVHNHALKVNGRWELKNVEIRHR | 0.893
DDIEHDVKFFMERWVEAINTGDWKLLKKLVDPDAKFLIGDKELHGRELYVRHVLELRYRTEMIDNKIEVYDGRVHADMQVHSTLHIDGRNVDIHTHTRVVTRKVDGQWRLKSMEIL | 0.993
SEDQEESEKFLKDLIRVILTGNEESLMKLADPHARFHIGDKTYIGWDKWVRMLSERVRDLGIRIEIRVHDFHVYNGVAENDHRHHVHFENHEYNHIMILHDDKINGKWTIRTLVIK | 1.13
DDEKKHALEVVRKYFRAFLTGDEDESFELMDPRVKVDINGRDIHGWEEYRKWMEEIRIHDHRVKEEHFRVYDGRLIIIIRGELNGEINGRRFEFEFNIIIVVAKVDGQWRTESFKMEIH | 1.31
HEEERILRFYLEWIEHHLRTGDERFIEENADPNVKIRVNGKDIHGRERYNEVWDKVLRDFGVDHTNDKDTTAYDGRIEVHEEWRFNGRRVDVETIIIFINGVIKHIEIRIRIE | 2.12
DELEEETRRFAKHWVESLLTGDEDKLSRLMDPNVILDVNGREHIGWERAVHHLSRLLKELGAKHINVRLHELRIYDGVAEIDSRLQIIVGDKTEEHNVKLVITKVDGRWVVKSITIH | 1.95
EEDKETAEHFSRVLHENWETGDEHRELLYMDPNVRTDFNGVDAVGREEFHKLVHHLLTHIRMRSLHIRKVHIQGEYLHIEGELNTEVNGREVVLEMRITSLKINGRWITHSMHFR | 0.304
SEDEKLAEDFFELLRHLIHTGDENTLREFADPRTRVQINGREIHGWDESARHIMHETLRFKNMRINLHLKDRRVIGEKMELDVKVQLHFNGQTEEFDFILYVEKVNGKWVIKSIHVH | 1.26
SEKEEDLRRAEQDFLREMETGDEHLTSELADPHVRIDIGDKVYHGREFWSKFVRRVKNATIQITHRQYQGDKLWLDGILNVDGRNIRMLVIIHKIDGVWVFKYVDIH | 2.27
DDEDRKKADEMLKALKHGDPDRVRELMDPNAKAVYGDKRIRGRDDFVEDMFRKQREIKIDMKIEEFRVNGNHAVFTVDVIEDKDGRPKRFKARVVITLHNGKIIDIKVEEEH | 1.49
SEEEWLTEYIWRVFIRLLLTGDERAINKLLDPHVQVDVGDKRIHGRELLSHIWRTEAEEIRHHIEVKRFHSQGEKVHHDVRITIIINGQVHRIEAHIHLFIYDGRITHIEVEFR | 1.36
DEEEEHLRKMTKLLWDQIHTGDEKDFLRLADPNARFEVEINGRKYEAHGREEIKHMLHDILELLGIDHVRLRDLELQGNKVILHSDTHVNGQDSKMRIEILIVNGRLKSFKIQTL | 0.995
DEEEEHSKLADEEMLHNLLTGNEEHINKMADPNVRIVIGDKELHGMERWREEMRFFKGARIEIKRSRIFTQGDKMHSEVDGTLNFNGRRVEILIVLVVRKVNGRWRIEMISYHIV | 1.57
SEEEHHAEEFVKIFTMTNLTGDFTTLEKLADPNVQIDVGDKHFHGREEMLKLIQDERREFGFKHLHLEIDRIETQGNFLDVHITVIIRVNGVEMRHKRRLTILKIDGQWHIKSVEVD | 1.27
DEDHQMATIAFHLLIESLLTGDEHTIQEMFDPRVKVNINGVELIGWEALVEHLRRIDHHSIHQWTFRDVRFYDGVLNVLGEVDFEVVFDGRRVSHRVRFHLIIFKIDGKWMTRTVEVK | 2.23
REQEEFSENAIKLWEHLTKTGDEEKMTKLMDPHARLDVNGQQLVGRELIEKIIREILKRIDHLDHIEFEHIDNQGEKVIIHSRVIFIFNGRKIDTEVHVIMIKINGQWRIESMTEK | 1.18
TEEDKLIEKAWRLFLHILHTGDWEEFHRLADPHMREDVNGVNLIGREDVLRHFIRLIEELGVKHSHVKDFRIHIFNGVIHTIMDVRTEYGDKSVDVRIHLEIEKIDGRWFLRTARIRLT | 1.51
